Among the data in US20260204353A1 (published 2026) are Kd values, retold here.

Test [1] deals with T1, - (UniProt Q15116 25-167). The test can be described thus: SPR (Biacore T200).
Test [2] concerns the target T1, -. The test can be described thus: SPR (Biacore T200); range printed.

T1 sequence (Q15116 25-167): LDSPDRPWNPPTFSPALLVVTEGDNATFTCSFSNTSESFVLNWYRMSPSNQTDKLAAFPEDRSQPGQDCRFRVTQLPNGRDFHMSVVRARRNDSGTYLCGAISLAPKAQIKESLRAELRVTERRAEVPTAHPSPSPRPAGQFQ

B1: Variant 7 (scFv, V domains shown)
VH: EVKLLESGGGLVQPGGSLRLSCAASGFTFSSYTMSWVRQAPGKGLEWVSYISHGGGDTYYPDSVKGRFTISRDNSKNTLYLQMNSLRAEDTAVYYCARHSGYERGYYYVMDYWGKGTTVTVSS
VL: DIVMTQSPDSLAVSLGERATINCKSSESVDYYGFSFLNWFQQKPGQPPKLLIYAASNRESGVPDRFSGSGSGTDFTLTISSLQAEDVAVYYCQQSKEVPWTFGQGTKLEIK
B1 displayed a Kd with - [1] of 0.67 nM.

B2: Variant 5 (scFv, V domains shown)
VH: EVQLVESGGGLVQPGGSLRLSCAASGFTFSSYTMSWVRQAPGKGLEWVSYISHGGGDTYYPDSVKGRFTISRDNSKNTLYLQMNSLRAEDTAVYYCARHSGYERGYYYVMDYWGQGTLVTVSS
VL: DIVMTQSPDSLAVSLGERATINCKASESVDYYGFSFLNWFQQKPGQPPKLLIYAASNRESGVPDRFSGSGSGTDFTLTISSLQAEDVAVYYCQQSKEVPWTFGQGTKLEIKR
B2 yielded an equilibrium dissociation constant (Kd) with - [1] of 2.3 nM.

B3: Variant 4 (scFv, V domains shown)
VH: EVQLVESGGGLVQPGGSLRLSCAASGFTFSSYTMSWVRQAPGKGLEWVSYISHGGGDTYYPDSVKGRFTISRDNSKNTLYLQMNSLRAEDTAVYYCARHSGYERGYYYVMDYWGQGTLVTVSS
VL: DIVMTQSPDSLAVSLGERATINCKSSESVDYYGFSFLNWFQQKPGQPPKLLIYAASNRESGVPDRFSGSGSGTDFTLTISSLQAEDVAVYYCQQSKEVPWTFGQGTKLEIKR
B3 yielded a Kd with - [1] of 3.6 nM.

B4: Variant 8 (scFv, V domains shown)
VH: EVKLLESGGGLVQPGGSLRLSCAASGFTFSSYTMSWVRQAPGKGLEWVSYISHGGGDTYYPDSVKGRFTISRDNSKNTLYLQMNSLRAEDTAVYYCARHSGYERGYYYVMDYWGKGTTVTVSS
VL: DIVMTQSPDSLAVSLGERATINCKASESVDYYGFSFLNWFQQKPGQPPKLLIYAASNRESGVPDRFSGSGSGTDFTLTISSLQAEDVAVYYCQQSKEVPWTFGQGTKLEIK
In turn, B4 gave a Kd with - [1] of 2.6 nM.

B5: Variant 3 (scFv, V domains shown)
VH: EVQLVESGGGLVQPGGSLRLSCAASGFTFSSYTMSWVRQAPGKGLEWVSYISHGGGDTYYADSVKGRFTISRDNSKNTLYLQMNSLRAEDTAVYYCARHSGYERGYYYVMDYWGQGTLVTVSS
VL: DIQLTQSPDSLSVSLGERATINCKASESVDYYGFSFLNWFQQKPGQPPKLLIYAASNRQSGVPDRFSGSGSGTDFTLTISSLQAEDVAVYFCQQSKEVPWTFGQGTKLEIKR
In turn, B5 registered an equilibrium dissociation constant (Kd) with - [1] of 5.6 nM.

B6: Variant 6 (scFv, V domains shown)
VH: EVQLVESGGGLVQPGGSLRLSCAASGFTFSSYTMSWVRQAPGKGLEWVSYISHGGGDTYYPDSVKGRFTISRDNSKNTLYLQMNSLRAEDTAVYYCARHSGYERGYYYVMDYWGQGTLVTVSS
VL: DIQLTQSPDSLSVSLGERATINCKASESVDYYGFSFLNWFQQKPGQPPKLLIYAASNRQSGVPDRFSGSGSGTDFTLTISSLQAEDVAVYFCQQSKEVPWTFGQGTKLEIKR
B6 registered a dissociation constant Kd with - [1] of 5.8 nM.

B7: Variant 2 (scFv, V domains shown)
VH: EVQLVESGGGLVQPGGSLRLSCAASGFTFSSYTMSWVRQAPGKGLEWVSYISHGGGDTYYADSVKGRFTISRDNSKNTLYLQMNSLRAEDTAVYYCARHSGYERGYYYVMDYWGQGTLVTVSS
VL: DIVMTQSPDSLAVSLGERATINCKASESVDYYGFSFLNWFQQKPGQPPKLLIYAASNRESGVPDRFSGSGSGTDFTLTISSLQAEDVAVYYCQQSKEVPWTFGQGTKLEIKR
For B7, in the test with - [2], binding was characterised by a dissociation constant (Kd) of 2 nM.

B8: Variant 1 (scFv, V domains shown)
VH: EVQLVESGGGLVQPGGSLRLSCAASGFTFSSYTMSWVRQAPGKGLEWVSYISHGGGDTYYADSVKGRFTISRDNSKNTLYLQMNSLRAEDTAVYYCARHSGYERGYYYVMDYWGQGTLVTVSS
VL: DIVMTQSPDSLAVSLGERATINCKSSESVDYYGFSFLNWFQQKPGQPPKLLIYAASNRESGVPDRFSGSGSGTDFTLTISSLQAEDVAVYYCQQSKEVPWTFGQGTKLEIKR
As for B8, the Kd with - [1] amounted to 5.8 nM.
